Results as given in patent CN105348390A (BEIJING WISDOMAB BOITECHNOLOGY CO LTD, dated 2016).
Substitutions are numbered along the chain they refer to.

B1: Alirocumab (antibody, V domains shown)
VH: EVQLVESGGGLVQPGGSLRLSCAASGFTFNNYAMNWVRQAPGKGLDWVSTISGSGGTTNYADSVKGRFIISRDSSKHTLYLQMNSLRAEDTAVYYCAKDSNWGNFDLWGRGTLVTVSS
VL: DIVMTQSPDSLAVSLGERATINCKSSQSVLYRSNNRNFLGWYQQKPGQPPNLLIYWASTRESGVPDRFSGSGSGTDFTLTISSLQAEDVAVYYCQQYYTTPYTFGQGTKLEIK
B2: H4H4-IgG4 (antibody, V domains shown)
VH: QVQLVQSGAEVKKPGASVKVSCKASGYAIYNYGISWVRQAPGQGLEWMGWVSFYNGNTNYAQKLQGRGTMTTDPSTSTAYMELRSLRSDDTAVYYCARGYVMDIWGQGTTVTVSS
VL: DIQMTQSPSSLSASVGDRVTITCRASQSINNWLDWYQQKPGKAPKLLIYAASTRPSGVPSRFSGSGSGTDFTLTISSLQPEDFATYYCQQDQDIPPTFGQGTKVEIKR
B3: H8A7-IgG4 (antibody, V domains shown)
VH: B2 VH with I104F
VL: B2 VL
B4: H8F4-IgG4 (antibody, V domains shown)
VH: B2 VH with I29L
VL: B2 VL
B5: H7B12-IgG4 (antibody, V domains shown)
VH: B2 VH with A28T, I29L, Y30N
VL: B2 VL
B6: S2F5 (scFv)
scFv: QVQLVQSGAEVKKPGSSVKVSCKASGGTFTGYSIHWVRQAPGQGLEWMGWINPISGSANYAQKFQGRVTITADKSTSTAYMELSSLRSEDTAVYYCARTQNNTGYRGTDYWGQGTLVTVSSGGGGSGGGGSGGGSDIQMTQSPSSLSASVGDRVTITCRASQSVSSYLNWYQQKPGKAPKLLIYGASTRPSGVPSRFSGSGSGTDFTLTISSLQPEDFATYYCQQHADTPTTFGQGTKVEIK
notes: also called 克隆S2F5
B7: S2G1 (scFv)
scFv: QMQLVQSGAEVKKPGSSVKVSCKTSGGTFGSSAIHWVRQAPRQGLEWMGRINPVLGTTNYTQKFHDRLTITADESTTTAYMELRSLRSDDTAVYYCAREGIPMIWGQGTMVTVSSGGGGSGGGGSGGGGSDIQMTQSPSSLSASVGDRVTITCRASQGIHNWLNWYQQKPGKAPKLLIYAASNRASGVPSRFSGSGSGTDFTLTISSLQPEDFATYYCQQSGKQPVTFGQGTKVEIK
notes: also called 克隆S2G1
B8: S2B8 (scFv)
scFv: QVQLVESGGGLVKPGGSLRLSCAVSGFTFSRHSMNWVRQAPGKGLEWVSSISSGSSNIYYADSVKGRFTISRDNAKNSLYLQMNSLRDEDTAVYYCARGGLGPEYLQHWGQGTLVTVSSGGGGSGGGGSGGGGSSSELTQPASVSGSPGQSITISCTGTSSDIGDNNFVSWYQQYPGKAPKLMIYDVSNRPSGVSNRFSGSKSGNTASLTISGLQAEDEADYYCSSYTSSSTLVFGGGTKVTVLG
notes: also called 克隆S2B8
B9: S3A12 (scFv)
scFv: QVQLVQSGAEVKKPGASVKVSCKASGYAIYNYGISWVRQAPGQGLEWMGWVSYFGGSTTYAQKLQGRGTMTTDPSTSTAYMELRSLRSDDTAVYYCAKGYGMEIWGQGTTVSSGGGGSGGGGSGGGGSDIQMTQSPSSLSASVGDRVTITCRASQNVNNWLDWYQQKPGKAPKLLIYAASTRASGVPSRFSGSGSGTDFTLTISSLQPEDFATYYCQQDRDVPVTFGQGTKVEIK
notes: also called 克隆S3A12

Each binder was assayed against T1, 重组huPCSK9-his (人PCSK9, C端His-tag) (human, UniProt Q8NBP7 54-692) (assay: SPR, Biacore 3000, antibody captured by anti-human Fc on CM5, huPCSK9 as analyte).
T1 construct: Expressed in HEK293 cells; not shown: C-terminal His-tag
T1 sequence (Q8NBP7 other isoform, or with tags, fused parts or gaps): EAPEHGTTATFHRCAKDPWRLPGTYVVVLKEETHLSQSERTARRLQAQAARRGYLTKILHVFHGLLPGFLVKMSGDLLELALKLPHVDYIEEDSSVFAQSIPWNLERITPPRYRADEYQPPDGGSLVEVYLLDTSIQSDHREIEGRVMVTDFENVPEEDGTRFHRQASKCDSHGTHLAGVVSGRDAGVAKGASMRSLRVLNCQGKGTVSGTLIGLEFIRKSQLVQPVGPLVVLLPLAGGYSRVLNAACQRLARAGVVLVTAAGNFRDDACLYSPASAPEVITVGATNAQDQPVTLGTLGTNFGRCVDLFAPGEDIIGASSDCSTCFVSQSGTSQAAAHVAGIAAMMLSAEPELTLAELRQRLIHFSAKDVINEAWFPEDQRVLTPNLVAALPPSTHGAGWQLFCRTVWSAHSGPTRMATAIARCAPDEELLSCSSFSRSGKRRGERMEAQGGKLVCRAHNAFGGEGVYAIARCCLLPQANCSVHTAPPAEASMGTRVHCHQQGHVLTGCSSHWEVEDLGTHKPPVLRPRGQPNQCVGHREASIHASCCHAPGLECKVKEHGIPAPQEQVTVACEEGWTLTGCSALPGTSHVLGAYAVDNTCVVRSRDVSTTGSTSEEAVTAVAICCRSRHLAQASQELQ

Row | Binder | Kd [nM] | koff [s⁻¹] | kon [M⁻¹ s⁻¹]
1 | B1 | 0.0677 | 0.000154 | 2.27e+06
2 | B2 | 0.0659 | 4.7e-05 | 714000
3 | B3 | 0.0648 | 4.83e-05 | 746000
4 | B4 | 0.0675 | 4.48e-05 | 663000
5 | B5 | 0.0323 | 3.26e-05 | 1.01e+06

What follows are binders tested against T1, 重组huPCSK9-his (人PCSK9, C端His-tag) (assay: solid-phase panning of scFv phage library on huPCSK9-his).

Row | Binder | binding result
6 | B6 | binds
7 | B7 | binds
8 | B8 | binds
9 | B9 | binds
